According to US20120301468A1, “ANTI-MN ANTIBODIES AND METHODS OF USING SAME” (BAYER HEALTHCARE LLC, priority 2005, published 2012):

Target: MN (Homo sapiens, UniProt Q16790)
Assay: Surface plasmon resonance (BIAcore) binding to MN protein
Parameters: The MN protein represents the entire extra-cellular domain of the protein with a C-terminal histag for purification; His tag (C); made in house; host or cells: HKB-11 (mammalian cell line)
Settings: soluble MN, panning-derived full-length antibodies, read-out: Affinity (Kd)
Description: The binding interactions between MN protein and the antibodies of this invention were analyzed using surface plasmon resonance technology on a BIAcore 3000 instrument (BIAcore, Uppsala, Sweden). For the binding of full-length IgGs (1e4, 1aa1, and 3ee9), goat anti-human IgG Fc was covalently coupled to the CM5 biosensor chip at high density using a standard amine coupling kit (BIAcore, Uppsala, Sweden). A capture assay was then used to bind these IgG to the anti-human IgG Fc-immobilized surface, aiming for a 300 response unit BIAcore signal. […] After ligand binding, the flow rate was then increased to 25 μl/min and various concentrations of MN analyte (e.g., range of 50 nM to 1 nM) were flowed over the surface for 10 minutes such that the association phase could be monitored. […] The binding of Fabs to MN was similarly determined except that an anti-human-Fab IgG was immobilized onto the chip and used to capture the Fabs prior to the assessment of MN binding.
Binding interactions between HKB11-expressed human MN protein and human full-length anti-MN MAbs were analyzed using surface plasmon resonance technology on a BIAcore 3000 instrument (BIAcore, Uppsala, Sweden). […] After ligand binding, flow rate was increased to 25 ul/min and MN analyte (50 nM to 1 nM) was flowed over the surface for 10 min such that the association phase could be monitored. […]

B1: 3a4: anti-MN antibody; CDRs SEQ ID NOS: 60, 66, 73, 108, 110, and 112 (antibody, V domains shown)
VH: QVELVESGGGLVQPGGSLRLSCAASGFTFSDYSINWVRQAPGKGLEYVSNISYSGSSTYYADSVKGRFTISRDNSKNTLYLQMNSLRAEDTAVYYCARFKYSGGSDSWGQGTLVTVSS
VL: DIELTQPPSVSVAPGQTARISCSGDNLPDFYVHWYQQKPGQAPVLVISEDNKRPSGIPERFSGSNSGNTATLTISGTQAEDEADYYCSTYGYTYSYSVFGGGTKLTVL
Question: How did the Kd turn out when B1 was run?
Answer: The Kd was 1 nM.
